Test [1] concerns the target ILT4 (CHO-S/ILT4 cells) (human). As to the kind of experiment: FACS. In general terms: A flow cytometer gives signals particle by particle.
The target is the same in test [2]. The test can be described thus: FACS, assay 4.
For test [3] the target is unchanged. As to the kind of experiment: FACS, assay 3.
Test [4] has the same target. The test can be described thus: FACS, assay 2.

Experimental findings from patent US20260356937 (published 2026) are described below.

Broadly, the EC50 is the concentration that produces a half-maximal response.

Sequence of ILT4 (CHO-S/ILT4 cells) (human) (chain, as listed by the source): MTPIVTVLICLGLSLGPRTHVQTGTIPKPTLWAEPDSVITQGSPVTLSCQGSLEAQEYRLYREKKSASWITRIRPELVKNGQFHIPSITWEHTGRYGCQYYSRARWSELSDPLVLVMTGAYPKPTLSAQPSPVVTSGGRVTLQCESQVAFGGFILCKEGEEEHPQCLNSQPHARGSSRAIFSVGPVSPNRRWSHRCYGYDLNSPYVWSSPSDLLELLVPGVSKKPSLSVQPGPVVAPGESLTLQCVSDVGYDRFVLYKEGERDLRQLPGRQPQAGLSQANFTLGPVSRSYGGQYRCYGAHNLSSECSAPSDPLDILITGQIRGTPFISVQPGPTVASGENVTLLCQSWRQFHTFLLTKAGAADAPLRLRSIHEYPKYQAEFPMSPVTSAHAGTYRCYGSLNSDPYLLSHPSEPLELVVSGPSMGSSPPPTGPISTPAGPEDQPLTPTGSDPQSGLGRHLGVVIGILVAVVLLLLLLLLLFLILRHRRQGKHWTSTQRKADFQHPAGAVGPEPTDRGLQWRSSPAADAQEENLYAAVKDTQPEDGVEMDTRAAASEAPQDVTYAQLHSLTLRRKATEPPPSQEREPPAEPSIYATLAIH

B1: huP2-C6 (antibody, V domains shown)
VH: EVQLVQSGAEVKKPGASVKVSCKASGYTFTDYYIHWVRQAPGQGLEWMGYIYPDTGYSGYNQKFKGRVTMTVDKSTSTAYMELRSLRSDDTAVYYCTRRGDYSGVHFDYWGQGTTVTVSS
VL: DIVLTQSPDSLAVSLGERATINCRASESVNNYGVGFLHWYQQKPGQPPKLLIYRASTLESGIPDRFSGSGSGTDFTLTISSLQAEDVAVYYCQHSYKDPPWTFGGGTKVEIK
Molecule B1 registered an EC50 in test [1] of 0.0368 µg/mL.

B2: P2m (antibody, V domains shown)
VH: QVQLVQSGAEVKKPGSSVKVSCKASGYTFTSYDISWVRQAPGQGLEWMGGIIPIFGTANYAQKFQGRVTITADESTSTAYMELSSLRSEDTAVYYCTAGIFLATAYWGQGTLVTVSS
VL: DIQMTQSPSSMSASVGDRVTISCQASQDIQNYLNWYQQRPGQAPKLLIYDASTLETGVPSRFSGSGSGTYFTLTISSLQPEDVATYYCQQYENVPITFGQGTRLEIK
As to B2, in test [1], the EC50 stood at 0.0163 µg/mL.

B3: MK (antibody, V domains shown)
VH: EVQLQQWGAGLLKPSETLSLTCAVYGGSFSGYYWSWIRQPPGKGLEWIGEINHAGSTNYNPSLKSRVTISVDTSKNQFSLKLSSVTAADTAVYYCARLPTRWVTTRYFDLWGRGTLVTVSS
VL: ESVLTQPPSVSGAPGQRVTISCTGSSSNIGAGYDVHWYQQLPGTAPKLLIYGDSNRPSGVPDRFSVSKSGASASLAITGLQAEDEADYYCQSFDNSLSAYVFGGGTQLTVLG
As to B3, the EC50 in test [2] is 0.0139 µg/mL; in test [3] it was 0.301 µg/mL; in test [4], 0.0415 µg/mL.

B4: huP2-G9 (antibody, V domains shown)
VH: EVQLQESGPGLVKPSQTLSLTCTVSGSSITSGYYWNWIRQHPGKGLEWIGYLSYDGSNNYNPSLKNLVTISRDTSKNQFSLKLSSVTAADTAVYYCAREGAHYSGTLSWFAYWGQGTLVTVSS
VL: DIQMTQSPSSLSASVGDRVTITCRASENIYSNLAWYQQKPGKSPKLLVYAATNLADGVPSRFSGSGSGTDYTLTISSLQPEDFATYYCQHFWDTPYTFGGGTKVEIK
The molecule B4 gave an EC50 in test [1] of 0.045 µg/mL.
